Results as given in the supplement of paper PMC9732359.
± gives the uncertainty stated by the source.

Test: protein stability index of a GFP-peptide fusion (yeast GPS) (PSI 1-4); higher = more stable; sorted into four equal gates, so the index is relative within each strain
How it was run: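 Tiled 17-residue yeast protein peptides were fused downstream of GFP in a plasmid that also expresses Cherry, and the pooled library was carried in yeast. Mid-log cultures in leucine-free medium were sorted into four equal gates by GFP/Cherry fluorescence ratio, and plasmids from each gate were PCR-amplified and Illumina-sequenced, with reads assigned to strains by barcodes. The protein stability index for each peptide was each gate's read frequency times its gate number, summed.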

Sequence | protein stability index (pdr5∆) | protein stability index (san1∆) | protein stability index (ubr1∆) | protein stability index (doa10∆)
ILYGLVDKGAIMKNKDF [YJL039C/NUP192] | 2.32 ± 0.2 | 3.06 ± 0.21 | 1.58 ± 0.15 | –
GNPGRIRVLFKENGQLI [SEC65] | 2.24 ± 0.072 | 2.33 ± 0.11 | 2.44 ± 0.059 | 2.38 ± 0.055
LKTEKIFKEINEHSTSY [FAS1] | 3.48 ± 0.2 | – | – | 3.29 ± 0.22
RLLEKSELPDIYSRDIG [SNF2] | 3.37 ± 0.13 | 2.96 ± 0.084 | 3.21 ± 0.17 | 3.12 ± 0.14
MRFNIEIIADWIWDMNV [BRR2] | 2.12 ± 0.075 | 2.7 ± 0.088 | 2.39 ± 0.041 | 2.61 ± 0.066
IPYAAKLLFQELLSMNI [RET1] | 1.46 ± 0.084 | 1.31 ± 0.16 | 1.35 ± 0.056 | 1.55 ± 0.1
GNIKDLPENIILTSLMR [CSN9] | 2.93 ± 0.075 | 2.43 ± 0.14 | 3.03 ± 0.1 | 2.69 ± 0.1
QLKFEGFALNSDIVFIH [BRR2] | 1.71 ± 0.061 | 2.06 ± 0.065 | 1.81 ± 0.036 | 1.87 ± 0.064
LLLKKIIKDYVLDIVPG [SRB4] | 2.52 ± 0.084 | 2.33 ± 0.1 | 2.71 ± 0.073 | 2.74 ± 0.094
MEEEQQRQERLRQQQQQ [RPN10] | 2.86 ± 0.25 | 3.37 ± 0.066 | 3.39 ± 0.085 | 3.4 ± 0.17
TEKMEEQLDLLSAILDP [MED11] | 3 ± 0.1 | 3.13 ± 0.12 | 3.4 ± 0.1 | 3.14 ± 0.087
QNNFHVLIDLLNWFRTT [RGR1] | 2.17 ± 0.074 | 2.67 ± 0.053 | 2.47 ± 0.09 | 1.99 ± 0.064
GKKWFEVSQFLIENGAS [NAS6] | 1.55 ± 0.061 | 1.4 ± 0.1 | 1.49 ± 0.074 | 1.91 ± 0.084
CLDRCKEQYNRYRDLMI [MTR3] | 2.62 ± 0.046 | 2.69 ± 0.054 | 2.88 ± 0.063 | 2.64 ± 0.074
KSESDELQMRSFLKEGD [RRP4] | 2.71 ± 0.23 | 3.09 ± 0.12 | 3.16 ± 0.096 | 3.18 ± 0.13
RMVRSIMWQLLDGVSYL [SSN3] | 1.26 ± 0.1 | 1.18 ± 0.12 | 1.34 ± 0.1 | 1.27 ± 0.078
DMDGVDFNQAFEGTDDN [BRN1] | 3.04 ± 0.091 | 3.35 ± 0.094 | 3.17 ± 0.072 | 2.97 ± 0.094
SSNSQQSTPQPDDMVEI [ITC1] | 2.74 ± 0.059 | 2.58 ± 0.054 | 2.87 ± 0.047 | 3.09 ± 0.064
LITTYSKLSKNISFYKL [SIN4] | 2.47 ± 0.12 | 2.24 ± 0.11 | 2.69 ± 0.072 | 2.18 ± 0.16
EIVRDILHTKESSNEAK [SIR4] | 2.96 ± 0.074 | 2.82 ± 0.06 | 2.75 ± 0.059 | 2.75 ± 0.067
LALEIIVRPAKGVATTR [RRP46] | 2.18 ± 0.065 | 1.86 ± 0.078 | 2.25 ± 0.051 | 2.09 ± 0.058
SPISDSRDELIRLAKTL [RPN10] | 1.77 ± 0.084 | 2.37 ± 0.16 | 2.24 ± 0.085 | 1.84 ± 0.095
VVESVGAEVDEARINEL [RPP2B] | 3.21 ± 0.091 | 3.35 ± 0.095 | 3.47 ± 0.15 | 3.23 ± 0.11
DVAIENNTLSRYADAGN [RRP43] | 3.32 ± 0.048 | 3.35 ± 0.035 | 3.44 ± 0.041 | 3.36 ± 0.045
DSVATVIEVIETKWDDA [YJR042W/NUP85] | 2.64 ± 0.28 | 2.16 ± 0.17 | 2.1 ± 0.27 | 2.32 ± 0.24
DKSTKTAEAPTLSFNFS [YOR098C/NUP1] | 3.29 ± 0.083 | 3.24 ± 0.051 | 3.23 ± 0.084 | 3.27 ± 0.076
NILSNKPGQNNRQQKKR [RRP6] | 3.06 ± 0.13 | – | – | 2.73 ± 0.18
SAAASESDVAKQLASFG [RPL16B] | 2.83 ± 0.042 | 2.44 ± 0.057 | 2.42 ± 0.027 | 2.76 ± 0.048
